Results from PMC11161628, “Omecamtiv mecarbil and Mavacamten target the same myosin pocket despite opposite effects in heart contraction” (Nature Communications, 2024).

Target: the molecule itself
Assay: crystal structure; PPS-S1-Mava (crystal type B): S1 with Mg.ADP.BeFx and 5 mM Mavacamten, trypsin 1:500 (w:w), hanging drop at 4 °C, 20.5% PEG3350, 7.5% NaTacsimate pH 6.0, 5 mM TCEP; two molecules per asymmetric unit; 2.61 Å

B1: Bovine β-cardiac myosin S1 fragment, heavy chain (domain or fragment, UniProt Q9BE39 1-810, looked up)
chain: MVDAEMAAFGEAAPYLRKSEKERLEAQTRPFDLKKDVFVPDDKEEFVKATILSREGGKVTAETEHGKTVTVKEDQVLQQNPPKFDKIEDMAMLTFLHEPAVLYNLKERYASWMIYTYSGLFCVTINPYKWLPVYNAEVVAAYRGKKRSEAPPHIFSISDNAYQYMLTDRENQSILITGESGAGKTVNTKRVIQYFAVIAAIGDRSKKEQATGKGTLEDQIIQANPALEAFGNAKTVRNDNSSRFGKFIRIHFGATGKLASADIETYLLEKSRVIFQLKAERDYHIFYQILSNKKPELLDMLLITNNPYDYAFISQGETTVASIDDAEELMATDNAFDVLGFTTEEKNSMYKLTGAIMHFGNMKFKLKQREEQAEPDGTEEADKSAYLMGLNSADLLKGLCHPRVKVGNEYVTKGQNVQQVVYAKGALAKAVYERMFNWMVTRINATLETKQPRQYFIGVLDIAGFEIFDFNSFEQLCINFTNEKLQQFFNHHMFVLEQEEYKKEGIEWEFIDFGMDLQACIDLIEKPMGIMSILEEECMFPKATDMTFKAKLFDNHLGKSSNFQKPRNIKGKPEAHFSLIHYAGTVDYNIIGWLQKNKDPLNETVVDLYKKSSLKMLSSLFANYAGFDTPIEKGKGKAKKGSSFQTVSALHRENLNKLMTNLRSTHPHFVRCIIPNETKSPGVIDNPLVMHQLRCNGVLEGIRICRKGFPNRILYGDFRQRYRILNPAAIPEGQFIDSRKGAEKLLGSLDIDHNQYKFGHTKVFFKAGLLGLLEEMRDERLSRIITRIQAQSRGVLSRMEFKKLLERRDS
notes: Native protein cut by proteases, not a recombinant construct; also called bovine cardiac S1 fragment; PPS-S1-Mava; source: purified from frozen bovine heart (Pel-Freez Biologicals); limited chymotryptic digestion of the full-length myosin, Mono-Q; trypsin present in the crystallization drops
- binding result: binds
